According to the nanobody polyreactivity screen of Harvey et al. (2022):

Assay: yeast display, Sf9 membrane polyspecificity reagent, FACS + sequencing; frameworks hold sequencing errors
Summary of the method: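 A nanobody's polyreactivity label depends on the gate it was sorted from. Yeast display cells were stained with 10% biotinylated, detergent-solubilized Sf9 membrane reagent for 1 hour at 4 °C, enriched on streptavidin microbeads and sorted by FACS. The low and high (top ~1%) gates were set on anti-HA fluorescence for expression and streptavidin fluorescence for reagent binding.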

QVQLVESGGGLVQAGGSLRLSCAASGSIFTRYTMGWDRQAPRKERELVATNSSRGDGTYYADSVKGRFTISRDNAKNTVYLQMNSLKPEDTAVYYCSARYRRVLSGYGYWGHGTQVTVSS
polyreactivity (PSR sort gate): high polyreactivity

QVQVVESGGGLVQAGGSLRLSCAASGSTFVIYAMGWYRQAPGKEMELVAGITYSGGRTYYADSVKGRFTISRDNAKNTVYLHMNSLKPEDTAVYYCNARSTWPSGRYAHYRRYYYWGQGTQVTVSS
polyreactivity (PSR sort gate): high polyreactivity

QGQVVESGGGLVQAGGSLRLSCAASGSTFYGYAMGWYREAAGKERELVAAISRDGSTNYADSVKGRFTISRDNAKNTVYLQMNSLKPEDTAVYYCATRTKKRAPYKFYSWGQGTQVTVSS
polyreactivity (PSR sort gate): high polyreactivity

QVQLVESGGGLVQAGGSLRLSCAASGSILVRYSMGWYRQAPGKERELVAAITSGGSTYADSVKGRFTISRDNAKNTVYLQLNSLNPEDTAVYYCARDYFNREAFDYWGQGTQVTVSS
polyreactivity (PSR sort gate): low polyreactivity

QVQLVESGGGLVQAGGSLRLSCAASGSTVESNVMGWYRQAPGKERELVAAISYSGGSTYIADSVKGRFTISRDNAKNTVYLQLNSLNPEDTAVLYSNALTSGYLYTFHRLWYPMYYWGQGTQGTVSS
polyreactivity (PSR sort gate): high polyreactivity

QVQLVESGGGLVQAGGSLRLSCAASGNIFGVYTMGWYRQAPGKERELVAAISDGGSTYYADSVKVRFTISRDNAKNTVYLQMNSLKPEDTAVYYCAASKIGYWGDYFRYYYWGQGTQVTVSS
polyreactivity (PSR sort gate): low polyreactivity

QVQIVESGGGLVQAGGSLSLSCASSGSTIGDYAMGWYRQAPGKERELVAAINSGDSKNYADSVKGRFTISRDNAKNTVYLQMNSLKPEDTAVYYCAAEPLSISYVYYKYKYEYWGQGTQVTVSS
polyreactivity (PSR sort gate): low polyreactivity

QVQLVESGGGLVQAGGSLRLSCAASGGIFSYNALGWYRQAPGKERELVAAISYSSTRTYYADSVKGRFTISRDNAKKTVYLQMNSLKREDTAVYYCAARLSRTRHTSDYWGQGTQVTVSS
polyreactivity (PSR sort gate): high polyreactivity

QVQLVESGGGLVQAGGSLRLSCAASGSTFVPYAMGWYRQAPGKERELVASITYSGGSTSYADSVKGRVTISRDTAKNTVYLQMNSLKPEDTAVNYCAAVPWVVYSGYDYWGQGTQVTVSS
polyreactivity (PSR sort gate): low polyreactivity

QVQLVESGGGLVQAGGSLRLSCAASGRIFKKNAMGWYRQAPGKERELVATITQRGGTTYYADSVKGRFTISRDNAKNTVYLQMNSLKPEDTAVYYCATEGYETWSYWYRGAYTYYYWGQGTQVTVSS
polyreactivity (PSR sort gate): high polyreactivity

QVQLVESGGALVQAGGSLRLSCAASGISFSWYAMGWYRQAPGKEREFVAAISRGGTSTYYADSVKGRLTISRDNAKNTVYLQMNSLKPEDTAVSYCAVQWLYPYDYWGQGTQVTVSS
polyreactivity (PSR sort gate): high polyreactivity

QVQLVESGGGLVQAGGSLRLSCAASGFIFYSYDMGWYRQAPGKERELVAANDSRGVNTYYADSVKGRFTISRDNAKNTVYLQMNSLKPEDTAVYYCAAQASSQIDYYGGHYGYWGQGTQVTVSS
polyreactivity (PSR sort gate): low polyreactivity

QVQLVESGGGLVQAGGSLRLSCAASGSIYVQNAMGWYRQAPGKERELVAAITFSGVDTYYADSVKGRFTISRDNAKNTVYFQMNSLKPEDTAVYYCNADRGYNLVRRSQAVVEMDYWGQGTQVTVSS
polyreactivity (PSR sort gate): low polyreactivity

QVQLVESGGGFVQAGGSLRLSCAASGRIRFYAMGWYRQAPGKERELVAAISSSGGSTYYADSVKGSFTISRDNAKNTVYLQMNSLKPEDTAVYYCAAAWYYLGTRAQLYDYWGQGTQVTVSS
polyreactivity (PSR sort gate): low polyreactivity

QVQLVESGGGLVQAGGSLRLSCAASGFTFWDNAMGWYRQAPGKERELVAAISRRGGTTYYADSVKGRFTISRDNAKNTVYLQMNRLKPEATAVYYCNARRRSVPYRYDFWGQGTQVTVSS
polyreactivity (PSR sort gate): high polyreactivity

QVQLVESGGGLDQAGGSLRLSCAASGSIFYTNAMGWYRQAPRKERELVAAITSADSTYYADSVKGRFTISRDNANNTVYLQMNSLKPEDTAFYYCANDVYYYYRWYEYWGQGTQVTVSS
polyreactivity (PSR sort gate): high polyreactivity

QVQLVESGGGLVQAGGSLRLSCAASGNIFTYYVMGWYRQAPGKERELVAAISRRGGSTYYADSVKGRFTISRDNAKNTVYLQMNSLKPEDTAVYYCAKKYPRDMDYWGQGTQVTVSS
polyreactivity (PSR sort gate): high polyreactivity

QVQLVESGGGLVQAGGSLRLSCAASGRIFVGYAMGWYRQAPGKEREFVAAITIGGTDTYYADSVKGRFTISRDNAKNTVYLQMNSLKPEDTAVYYCNADLLYPYDFDYWGQGTQVTVSS
polyreactivity (PSR sort gate): low polyreactivity

QVQLVESGGGLVQAGGSLRLSCAASGSTFHLYAMGWYRQAPGKERELVASITWSGGRTYYADSVKGRFTISRDYAKNTVYLHMNSLKPEDTAVYYCAAGDVNWSYSLLYTVVLYDSWGQGTQVTVSS
polyreactivity (PSR sort gate): high polyreactivity

QVQLVESGGGLVQAGGSLRLSCAASGSIFRGNAMGWYRQAPVKERELVAGINRAGSTKYADSVKGRFTISRDNAKNTVYLQMNSLKPEDTAVYYCAAVRYERGLWSDYWGQGTQVTVSS
polyreactivity (PSR sort gate): high polyreactivity

HVQLVESGGGLVQAGGSLRLSCAASGSISAVNTMGWYRQAPGKERELVATISYSTASTYYADSVKGRFTISRDNAKNTVYLQMNSLKPEDTAVYYCAADAYFDTWYDYWGQGTQVTVSS
polyreactivity (PSR sort gate): low polyreactivity

QVQLVESGGGLVQAGGSLRLSCDASGSIFRYYGMGWYRQAPGKEREMVAVISYRGGSTYYADSVKGRFTISRDNAKNTVYLQMNSLKPEDTAVYYCIADDPSKLGYEHDYWGQGTQVTVSS
polyreactivity (PSR sort gate): low polyreactivity

QVQLVESGGGLVQAGGSLRLSCAASGSTFSNNAMGWYRQAPGKERELVASTNYADSVKGRFTISRDNAKNTVYLQMNSLKPEDTAVYYCAAGAYPSWGHDYWGQGTQVTVSS
polyreactivity (PSR sort gate): low polyreactivity

QVQLVESGGGLVQAGGSLRLSCAASGFTVGYYAMAWYRQAPGKERELVAAISYVGGTTYYADSVKGRFTISRDNAKKTVYLQMNSLKPEDTAVYYCATLYRGSVRYYYWGQGTQVTVSS
polyreactivity (PSR sort gate): high polyreactivity

QVQLVESGAGLVQAGGSLGLSCAPSGRIFGRYVRGWYRQAPGKERELVATITSRGGTTYYADSVKGRFTISRDNAKNTVFLQMISLKPEDTAVYYCAVRGLIRFSKYGYWGQGTQVTVSS
polyreactivity (PSR sort gate): high polyreactivity

QVQLVESGGGLVQAGGSLRLRCAASGRNIHWYAMGWSRQAPGKEMELVAAITGSGGRTSYADSVKGRFTISRDFAKNTVYLQMNSLKPQDTAVYYCAKRATWYTVPREGYWGQGTQVTVSS
polyreactivity (PSR sort gate): high polyreactivity

QVQLVESGGGLVQAGGSLRLSCAASGRIFGVYAMGWYREAPGKEREVVAAITYRGASTYADSVKGRFTISRVNAKKTVYLQMNSLKPEDTAVYYCATYPQYYFRYDYWGQGTQVTVSS
polyreactivity (PSR sort gate): high polyreactivity

QVQLVESGGGLVQAGGSLRLSCAASGSNFTAYAMGWYRQAPGKERELVAAITKSSVTYYADSVKGRFTISRDNAKNTVYLQMNSVKPEDTAVYYCAGYSPRPSDLYSPIAYYYWGQGTLVTVSS
polyreactivity (PSR sort gate): low polyreactivity

QVQLVESGGGLVQAGGSLRLSCAASGRTSQINAMGWYIQAPGKERELVAAITRGGGITYYADSVKGRFTISRDNAKNTVYLQMNSLKPEDTAVYYCATRGSSFVQYRTRYGYWGQGTQVTVSS
polyreactivity (PSR sort gate): high polyreactivity

PVQLVESGGGLVQAGGSLRISCAASGSIFRVNAMGWYRQAPGKERELVAAITTNGGSTYYADSVKGRFTISRDNAKNTVYLQMNSLKPEDTAVYYCAADYSLPWSWLYEYWGQGTQVTVSS
polyreactivity (PSR sort gate): low polyreactivity

QVQLEESGGGLVQAGGRLRLSCAASGFIFWGNAMGWYRQAPGKERELVAGIRSLGGTTSYEDSVKGRFTISRDNAKNSVYLQINSLKPEDTAVYSCAAGYVAEFDYWGQVTQVTVSS
polyreactivity (PSR sort gate): low polyreactivity

QVQLVESGGGLVQAGGSLRLSCAASGFTFNYNTMGWYRQAPGKERQLVAAISRSGGSTYYADSVKGRITISRDNAKNTVYLQMNSLKPEDTAVFYCAKDTYYPSSRYNRYYYWGQGTQVTVSS
polyreactivity (PSR sort gate): high polyreactivity

QVQLVESGGGLVQAGGSLRLICAASGSTFGGNVMGWYRQAPGKERELVAAINWSGGRTYYADSVKGRFTISRDNAKNTVYLQMNSLKPEDTAVYYCAADGGQNGMNYWGQGTQVTVSS
polyreactivity (PSR sort gate): high polyreactivity

QVQLVESGGGLVQAGGSLRLSCAASGFTFASNAMGWYRQAPGKERELVAAITWGTGTTSYADSVKGRFTISRDYAKNTVYLQMNSLKPEDTAVYYCNARVGPELHDYWGQGTQVTVSS
polyreactivity (PSR sort gate): low polyreactivity

QVLLVESGGGLVQAGGILRLSCAASGNILGYNAMGWSRQAPGKERELVAAISWIGGSTYYADSVKGRFTISRDNAKNTVYLQMNSLKQEDTAVYYCASRYRTYFTYEYWGQVTQVTVSS
polyreactivity (PSR sort gate): low polyreactivity

QVQLVESGGGLVQAGGSLRLSCAASGINLFYYAMGWYIQAPGKETDFVAAISWSGGSTYYADSVKGRFTISRDNAQNTVYLQMNSLKPEDTALYYCAAKWYSYRWTQFDYWGQGTQVTVSS
polyreactivity (PSR sort gate): high polyreactivity

QVQLVESGGGLVQAGGSLRLSCAASGSTFFPNDKGWYRQAPGKERELVAAISWRGGNTYADSVKGLFTISRDNAKYTVYLQMNSLKPEDTAVYYCAAEFWYTYPYLVDYWGQGTLVTVSS
polyreactivity (PSR sort gate): low polyreactivity

QVQLVESGGGLVQAGGSVRLSCAASGRILKVYPMGWYRQAPGKEWEFVAAISVNGGRTYYADSVKGRFTISRDNAKNTVYLQRQRLNPEDTAVYYCAKRLYKPGNVFYSVDQSDYWGQGTQVTVSS
polyreactivity (PSR sort gate): low polyreactivity

QVQLVDSGGGLVQAGGSHRLSCAASGRIFVAYAMGWYRQAPGKERELVAGISRGGSTYYADSVKGRFTISRDNAKNTVYLQMNSLKPEDTAVYYCATDQRVRRYDYWGQGTQVTVSS
polyreactivity (PSR sort gate): low polyreactivity

QVKLVESGRGLVQAGGSLRVSCAASGRIFQRYVMGWYRQAPGKERELVAAITWSGGSTYADSVKGRFTISRDNAKNTVYLQMNSLKTEDTAVYYCAARVPYNYWGMYYLYDYWGQGTQVTVSS
polyreactivity (PSR sort gate): high polyreactivity

QVQRVESGGGLVQAGGSLRLSCAASGSLFYLYAMGWYRQAPGKERELVARITIRGGSTYYADSVKGRFTISRDNAKNTVYLQMNSLKPEDTAVYYCAARRPYGDYDYWGQGTQVTVSS
polyreactivity (PSR sort gate): high polyreactivity

QVQLVESGGGLVQAGGSLRLSCAASGRTFIYYAMGWYRQAPGKERELVAAISRSGGSTYYADSVKGRFTISRDNAKNTVYLQMNSLKPEDTAVYYCAAADPLGYEYDSWGQGTQVTVSS
polyreactivity (PSR sort gate): high polyreactivity

QVQLVESGGGLVQAGGSLRLSCAASGFTFGRTVRGWYRQAPGKERELVAAISSSGGSTYYADSVKGRFTISRDNAKNTVYLQMNSLKPEDTAVYYCAAVLVSWYRNPQYDYWGQGTQVTVSS
polyreactivity (PSR sort gate): high polyreactivity
